The source of these data is paper PMC3156817 (Nature Communications, 2011).

The target of one assay is huPrP23-231 (human) (UniProt P04156). As to the kind of experiment: DELFIA.
In the next assay the target is huPrP23-231 (Homo sapiens, UniProt P04156). Kind of assay: DELFIA.

“bADDLs prepared from biotinylated Aβ1-42 (bAβ1-42) (from UniProt P05067) (peptide)” showed a Kd in the assay with huPrP23-231 (human) of 82 nM.

Molecule “Aβ-derived diffusible ligands (ADDLs) prepared from Aβ1-42 (from UniProt P05067) (peptide)” showed an equilibrium dissociation constant (Kd) in the assay with huPrP23-231 (human) of 100 nM. The Kd values of the last two molecules are within 1.5-fold of each other.

B1: ICSM-18 (antibody, V domains shown)
VH: EVQLQQSGPELVKPGSSVKISCKASRNTFTDYNLDWVKQSHGKTLEWIGNVYPNNGVTGYNQKFRGKATLTVDKSSSTAYMELHSLTSEDSAVYYCALYYYDVSYWGQGTLVTVSS
VL: QIVLTQSPAIMSASPGEKVTMTCSASSSVSYMHWYQQKSGTSPKRWIYDTSKLASGVPARFSGSGSGTSYSLTISSMEAEDAATYFCHQWRSNPYTFGGGTKLEIK
Turning to B1, in the assay with huPrP23-231, the Kd was about 10 nM and the Ki is about 20 nM.
